Data on twelve molecules can be found in US20160251440A1 (Ablynx, published 2016).

Where only a bound is given, the exact number is not on record here.

The target in assay [1] is T1, human IL-3Rα (CD123), cell-expressed (human, UniProt P26951 19-378).
T1 construct: whole, on cells; also called IL-3Ra; Hek-IL-3Rα
Kind of assay: flow cytometry on Molm-13 cells; EC50(M) printed in the legend box beside the curves.

Assay [2] concerns the target T2, recombinant IL-3Rα ectodomain (human, UniProt P26951 19-305).
T2 construct: extracellular domain; also called recombinant IL-3Ra; biotinylated-IL-3Rα ectodomain
T2 sequence (looked up): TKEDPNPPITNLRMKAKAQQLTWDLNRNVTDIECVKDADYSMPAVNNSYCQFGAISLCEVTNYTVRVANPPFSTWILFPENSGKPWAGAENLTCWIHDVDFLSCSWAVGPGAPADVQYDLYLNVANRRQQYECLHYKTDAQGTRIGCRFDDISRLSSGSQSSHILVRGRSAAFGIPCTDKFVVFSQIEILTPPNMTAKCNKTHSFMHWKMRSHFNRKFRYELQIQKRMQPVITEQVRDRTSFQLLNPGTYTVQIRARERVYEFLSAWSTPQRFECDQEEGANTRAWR
As to the kind of experiment: SPR ProteOn, immobilised IL-3Rα ectodomain.

The target in assay [3] is T1, human IL-3Rα (CD123), cell-expressed. As to the kind of experiment: FACS, MOLM-13 cells. (Flow cytometry measures light scatter and fluorescence of single cells or particles in a stream.)
The target of assay [4] is T2, recombinant IL-3Rα ectodomain. As to the kind of experiment: competition ELISA, coated mAb 7G3 + biotinylated IL-3Rα ectodomain. Background: An ELISA detects its analyte on a solid surface through an enzyme-linked reagent.
For assay [5], the target named is T3, human IL12Rβ1, cell-expressed (human, UniProt P42701 24-662).
T3 construct: whole, on cells; in the context of the heterodimeric receptor; also called IL12Rb1
Kind of assay: flow cytometry on isolated CD8+ T cells of donor D863, anti-Flag detection.

The target in assay [6] is CXCR4 and CD4 co-expressed on cells (MOLM-13, THP-1, MT-4, PBMC; Jurkat CD4 low) (human, UniProt P61073 1-352; P01730 26-458). Kind of assay: cell-based or functional assay.
For assay [7], the target named is human CXCR4 (on cells, viral lipoparticles or membrane extracts) (human, UniProt P61073 1-352). Kind of assay: cell-based or functional assay.
The target in assay [8] is T2, recombinant IL-3Rα ectodomain. As to the kind of experiment: ELISA on recombinant IL-3Ra ectodomain (lower right panel).
For assay [9], the target named is T4, recombinant human CEACAM5 (human, UniProt P06731 35-685).
T4 construct: also called hCEACAM-5; R&D Systems 4128-CM
T4 sequence (looked up): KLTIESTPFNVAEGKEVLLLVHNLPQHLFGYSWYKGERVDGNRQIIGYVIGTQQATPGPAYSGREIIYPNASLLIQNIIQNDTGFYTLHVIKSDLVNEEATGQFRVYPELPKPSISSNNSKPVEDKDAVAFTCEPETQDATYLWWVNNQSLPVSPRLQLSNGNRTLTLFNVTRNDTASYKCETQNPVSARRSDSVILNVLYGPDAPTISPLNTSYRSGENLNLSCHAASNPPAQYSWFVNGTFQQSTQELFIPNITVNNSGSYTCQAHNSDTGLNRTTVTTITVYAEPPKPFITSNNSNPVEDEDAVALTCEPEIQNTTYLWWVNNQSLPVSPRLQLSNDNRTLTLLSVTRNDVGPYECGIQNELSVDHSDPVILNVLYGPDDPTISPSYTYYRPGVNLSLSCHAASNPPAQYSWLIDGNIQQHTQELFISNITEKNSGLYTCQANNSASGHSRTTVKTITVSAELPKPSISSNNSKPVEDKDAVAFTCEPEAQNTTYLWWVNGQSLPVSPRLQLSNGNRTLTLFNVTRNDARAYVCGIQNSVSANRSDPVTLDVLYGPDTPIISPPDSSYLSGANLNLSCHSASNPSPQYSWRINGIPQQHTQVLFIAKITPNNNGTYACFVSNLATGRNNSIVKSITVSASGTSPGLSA
As to the kind of experiment: SPR Biacore T100, immobilised hCEACAM-5. For orientation: SPR reads the build-up and loss of mass on a sensor chip optically.

Sequence of human CXCR4 (on cells, viral lipoparticles or membrane extracts) (P61073 whole entry, the tested form may be a part): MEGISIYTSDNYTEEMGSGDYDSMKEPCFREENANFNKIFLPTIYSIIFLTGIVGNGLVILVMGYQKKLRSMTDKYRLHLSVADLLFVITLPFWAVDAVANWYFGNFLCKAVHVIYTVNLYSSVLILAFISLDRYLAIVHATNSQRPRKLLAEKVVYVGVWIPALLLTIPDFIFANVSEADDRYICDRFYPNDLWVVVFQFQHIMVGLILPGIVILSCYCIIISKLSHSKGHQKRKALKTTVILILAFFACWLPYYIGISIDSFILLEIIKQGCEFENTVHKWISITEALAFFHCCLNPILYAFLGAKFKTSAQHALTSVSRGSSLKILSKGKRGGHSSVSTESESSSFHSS
Sequence of CXCR4 and CD4 co-expressed on cells (MOLM-13, THP-1, MT-4, PBMC; Jurkat CD4 low) (P61073 whole entry, chain 1 of 2, other chains not shown): as the sequence (P61073 whole entry, the tested form may be a part) above
T1 sequence (P26951 19-378): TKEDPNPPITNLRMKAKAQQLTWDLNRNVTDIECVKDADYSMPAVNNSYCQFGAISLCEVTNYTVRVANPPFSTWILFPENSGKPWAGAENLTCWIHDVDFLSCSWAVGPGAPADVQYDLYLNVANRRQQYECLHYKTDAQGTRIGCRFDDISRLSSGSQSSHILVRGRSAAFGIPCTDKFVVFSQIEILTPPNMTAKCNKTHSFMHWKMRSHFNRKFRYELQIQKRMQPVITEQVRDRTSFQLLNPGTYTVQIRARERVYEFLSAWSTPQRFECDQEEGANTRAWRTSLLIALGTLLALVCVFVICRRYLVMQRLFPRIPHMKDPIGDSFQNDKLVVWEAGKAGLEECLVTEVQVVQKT

B1: 50F07 (VHH)
VHH: EVQLVESGGGLVQPGGSLRLSCTGSGSTFSINAMGWYRQAPGKQRELVAAITSGGRTNYADSVKGRFTISRDNSKNTVYLQMNSLRPEDTAVYYCNARISAGTAFWLWSDYEYWGLGTLVTVSS
Usually EC50 stands for the concentration needed to bring the measured effect to its halfway point. A word on the Kd: it is a measure of binding affinity in units of concentration. What is called koff is a measure of how fast the partners let go of each other. As a reminder, the kon is the second-order rate constant of association. By IC50 is commonly meant the concentration that inhibits the measured activity by half. Regarding B1, in assay [1], the EC50 is 66 nM. In assay [2], the Kd is 74.2 nM, the koff came out at 0.00758 s⁻¹ and the kon worked out at 102000 M⁻¹ s⁻¹. In [3], this molecule registered an EC50 of 14.6 nM. Besides, the IC50 in [4] is 230 nM.

B2: 55F03 (VHH)
VHH: EVQLVESGGGLVQAGGPLRLSCAASGRTFSSYVMGWFRQAPGKEREFVAAIYWSNGKTQYTDSVKGRFTISGDNAKNTVYLQMNSLNPEDTAVYYCVADKDETGFRTLPIAYDYWGLGTQVTVSS
In turn, B2 showed an EC50 in assay [1] of 350 nM. In assay [2], the Kd is 115 nM, the koff is 0.00487 s⁻¹ and the kon worked out at 42500 M⁻¹ s⁻¹. In addition, the EC50 in [3] worked out at 113 nM.

B3: cAbLys3 (VHH)
VHH: DVQLQASGGGSVQAGGSLRLSCAASGYTIGPYCMGWFRQAPGKEREGVAAINMGGGITYYADSVKGRFTISQDNAKNTVYLLMNSLEPEDTAIYYCAADSTIYASYYECGHGLSTGGYGYDSWGQGTQVTVSS
notes: also called irrelevant control Nanobody directed to lysozyme
Take B3: the binding result in [5] was “no binding (tested: 250 nM)”.

B4: 55C05 (VHH)
VHH: EVQLVESGGGLVPAGDSLRLSCVASGRSLNTYTMGWFRQAPGKECEFVAAINWNGVYRDYADSAKGRFTASRDNAMNTVFLQMNSLKPEDTAVYFCATATQGWDRHTEPSDFGSWGLGTQVTVSS
As to B4, a half-maximal response in assay [1] (EC50) required 4100 nM. In addition, in assay [2], the Kd was found to be 59 nM, the off-rate (koff) was determined as 0.00741 s⁻¹ and the kon is 126000 M⁻¹ s⁻¹. The molecule also had an EC50 in assay [3] of 31.2 nM. Besides, the IC50 in [4] is 190 nM.

B5: 03F11-9GS-281F12 (bispecific antibody)
chain: EVQLVESGGGSVQPGGSLTLSCGTSGRTFNVMGWFRQAPGKEREFVAAVRWSSTGIYYTQYADSVKSRFTISRDNAKNTVYLEMNSLKPEDTAVYYCAADTYNSNPARWDGYDFRGQGTQVTVSSGGGGSGGGGSEVQLVESGGGLVQAGDSLRLSCAASGRAFSRYAMGWFRQAPGKEREFVAAIGWGPSKTNYADSVKGRFTISRDNAKNTVYLQMNTLKPEDTAVYSCAAKFVNTDSTWSRSEMYTYWGQGTQVTVSS
With B5, in assay [6], the “IC50, HIV-1 BaL (R5), PBMC” value was over 666 nM; the “IC50, HIV-1 NL4.3 (X4), MT-4” value is 14.9 nM; the “IC50, HIV-1 NL4.3 (X4), PBMC” value was found to be 17 nM; the “IC50, HIV-1 NL4.3 (X4), U87” value is over 3330 nM.

B6: 51D09 (VHH)
VHH: EVQLVESGGGLVQPGGSLRLSCAASGSIFSGNTMGWYRQAPGKQRELVAAISSGGSTDYADSVKGRFTISRDNSKNTVYLQMNSLRPEDTAVYYCNAAILLYRLYGYEEGDYWGLGTLVTVSS
In turn, B6 yielded an EC50 in assay [1] of 16 nM. In [2], the equilibrium dissociation constant (Kd) was determined as 13.6 nM, the koff was found to be 0.000516 s⁻¹ and the kon stood at 37800 M⁻¹ s⁻¹. Further, the EC50 in assay [3] worked out at 15.3 nM.

B7: 14D09-35GS-57A07 (bispecific antibody)
chain: EVQLVESGGGLVQAGGSLRLSCVASGISSSKRNMGWYRQAPGKQRESVATISSGGNKDYTDAVKDRFTISRDTTKNTVYLQMNSLKPEDTAVYYCKIEAGTGWATRRGYTYWGQGTLVTVSSGGGGSGGGGSGGGGSGGGGSGGGGSGGGGSGGGGSEVQLVESGGGLVQAGGSLRLSCAASGSIFSGNVMGWYRRQAPGKEREWVAAIASGGSIYYRDSVKGRFTISRDNAKNTVYLQMNSLKPEDTAVYYCNSHPPTLPYWGQGTLVTVSS
notes: also made with FLAG3-His6 in Pichia; also called CXCR4#1-CD123#1; 14D09-57A07
The EC50 (read off the curve) is the concentration giving half of the maximal effect. For the molecule B7, in assay [7], the “Fold inc. vs CXCR4#1, Jurkat E6-1” value worked out at 0.69 fold; the “Fold inc. vs CXCR4#1, MOLM-13” value stood at 2.39 fold; the “IC50, CXCL-12 chemotaxis, Jurkat E6-1” value turned out to be 15 nM; the “IC50, CXCL-12 chemotaxis, MOLM-13” value amounted to 3.6 nM. Further, the “EC50 (read off the curve)” value in [8] was about 0.5 nM.

B8: 57A07-35GS-14D09 (bispecific antibody)
chain: EVQLVESGGGLVQAGGSLRLSCAASGSIFSGNVMGWYRRQAPGKEREWVAAIASGGSIYYRDSVKGRFTISRDNAKNTVYLQMNSLKPEDTAVYYCNSHPPTLPYWGQGTLVTVSSGGGGSGGGGSGGGGSGGGGSGGGGSGGGGSGGGGSEVQLVESGGGLVQAGGSLRLSCVASGISSSKRNMGWYRQAPGKQRESVATISSGGNKDYTDAVKDRFTISRDTTKNTVYLQMNSLKPEDTAVYYCKIEAGTGWATRRGYTYWGQGTLVTVSS
notes: FLAG3-His6 also made; also called CD123#1-CXCR4#1; 57A07-14D09
For B8, in assay [7], the “Fold inc. vs CXCR4#1, Jurkat E6-1” value is 0.05 fold and the “IC50, CXCL-12 chemotaxis, Jurkat E6-1” value is 210 nM. Further, in assay [8], the “EC50 (read off the curve)” value was about 0.5 nM.

B9: 55B04 (VHH)
VHH: EVQLVESGGGLVQPGGSLRLSCAASGINFRFNSMGWWRRRAPGKEREWVAAITSGDITNYRDSVRGRFTISRDNVKNTVYLQMNTLKLEDTAVYYCNTFPPIADYWGLGTQVTVSS
On to B9, for which the EC50 in [1] stood at 1300 nM. In assay [2], the Kd is 15.8 nM, the koff was determined as 0.00794 s⁻¹ and the kon amounted to 504000 M⁻¹ s⁻¹. In assay [3], this molecule gave an EC50 of 51.2 nM. Further, in assay [4], the IC50 is 55 nM.

B10: CEA#2 (VHH)
VHH: EVQLVESGGGLVQPGGSLRLSCAASGDTYGSYWMGWFRQAPGQGLEAVAAINRGGGYTVYADSVKGRFTISRDNSKNTLYLQMNSLRAEDTAVYYCAASGVLGGLHEDWFNYWGQGTLVTVSS
notes: also called T023200002; humanised variant of NbCEA5
For B10, in assay [9], the dissociation constant (Kd) worked out at 1.9 nM, the koff was determined as 0.0025 s⁻¹ and the kon stood at 1.3e+06 M⁻¹ s⁻¹.

B11: 03F11-25GS-281F12 (bispecific antibody)
chain: EVQLVESGGGSVQPGGSLTLSCGTSGRTFNVMGWFRQAPGKEREFVAAVRWSSTGIYYTQYADSVKSRFTISRDNAKNTVYLEMNSLKPEDTAVYYCAADTYNSNPARWDGYDFRGQGTQVTVSSGGGGSGGGGSGGGGSGGGGSGGGGSEVQLVESGGGLVQAGDSLRLSCAASGRAFSRYAMGWFRQAPGKEREFVAAIGWGPSKTNYADSVKGRFTISRDNAKNTVYLQMNTLKPEDTAVYSCAAKFVNTDSTWSRSEMYTYWGQGTQVTVSS
With B11, in [6], the “IC50, HIV-1 BaL (R5), PBMC” value was determined as 383 nM; the “IC50, HIV-1 NL4.3 (X4), MT-4” value was determined as 9.22 nM; the “IC50, HIV-1 NL4.3 (X4), PBMC” value turned out to be 8.67 nM; the “IC50, HIV-1 NL4.3 (X4), U87” value was over 3330 nM.

B12: 281F12-35GS-57A07 (bispecific antibody)
chain: EVQLVESGGGLVQAGDSLRLSCAASGRAFSRYAMGWFRQAPGKEREFVAAIGWGPSKTNYADSVKGRFTISRDNAKNTVYLQMNTLKPEDTAVYSCAAKFVNTDSTWSRSEMYTYWGQGTLVTVSSGGGGSGGGGSGGGGSGGGGSGGGGSGGGGSGGGGSEVQLVESGGGLVQAGGSLRLSCAASGSIFSGNVMGWYRRQAPGKEREWVAAIASGGSIYYRDSVKGRFTISRDNAKNTVYLQMNSLKPEDTAVYYCNSHPPTLPYWGQGTLVTVSS
notes: FLAG3-His6 also made; also called CXCR4#2-CD123#1; 281F12-57A07
As to B12, in assay [7], the “Fold inc. vs CXCR4#2, Jurkat E6-1” value was determined as 2.55 fold; the “Fold inc. vs CXCR4#2, MOLM-13” value is 12.6 fold; the “IC50, CXCL-12 chemotaxis, Jurkat E6-1” value was 38 nM; the “IC50, CXCL-12 chemotaxis, MOLM-13” value was found to be 6.83 nM. Also, the “EC50 (read off the curve)” value in assay [8] was about 0.5 nM.
